Reference: PMC11035800

What was measured:
RUNX1 = RUNX1 (UniProt Q01196); assay: anti-MYC IP, anti-RUNX1 blot; conditions: reference: MYC-CARM1 wild type
CARM1 = CARM1 (UniProt Q86X55); assay: anti-HA co-IP, anti-MYC blot; conditions: reference: MYC-CARM1 wild type; sites Y149
UniProt Q86X55, sequence (Q86X55 whole entry Y149F): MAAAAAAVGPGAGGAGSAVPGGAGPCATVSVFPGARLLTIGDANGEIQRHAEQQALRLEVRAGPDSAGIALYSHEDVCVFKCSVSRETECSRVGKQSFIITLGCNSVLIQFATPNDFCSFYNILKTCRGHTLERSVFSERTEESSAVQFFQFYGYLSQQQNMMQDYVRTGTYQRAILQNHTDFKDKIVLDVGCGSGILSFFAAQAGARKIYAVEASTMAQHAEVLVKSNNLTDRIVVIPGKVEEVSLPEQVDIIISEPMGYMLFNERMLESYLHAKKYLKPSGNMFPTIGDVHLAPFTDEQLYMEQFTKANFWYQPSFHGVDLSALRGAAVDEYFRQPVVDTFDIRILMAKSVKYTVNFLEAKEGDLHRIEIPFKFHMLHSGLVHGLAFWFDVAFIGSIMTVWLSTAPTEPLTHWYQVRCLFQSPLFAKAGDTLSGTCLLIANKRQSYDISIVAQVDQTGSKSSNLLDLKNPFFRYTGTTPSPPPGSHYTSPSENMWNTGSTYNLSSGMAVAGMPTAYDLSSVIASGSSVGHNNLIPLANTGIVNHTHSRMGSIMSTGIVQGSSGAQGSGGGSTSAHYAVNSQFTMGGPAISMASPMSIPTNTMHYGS

binding against the reference (RUNX1; sites Y149) | binding against the reference (CARM1) | binding against the reference (RUNX1; sites Y334) | Substance
lost | weaker |  | CARM1 (from UniProt Q86X55) MYC-CARM1 Y149F
 |  | lost | CARM1 (from UniProt Q86X55) MYC-CARM1 Y334F
